{"source": "paper PMC5318860", "target": "SAVSBPM18-L-ABD(KC) fusion (not stated | Lumbricus terrestris)", "assay": "affinity chromatography; 1-ml columns with about 1 mg of SAVSBPM18-L-ABD(KC) on Sepharose 6B-CL or 1,025 μg of SAVSBPM18 on Affi-Gel 15; 1 mg of biotinylated BSA loaded, above the binding capacity; elution with 10 mM biotin; fractions on SDS-PAGE", "data": [{"substance": "chemically biotinylated bovine serum albumin (BSA) (from UniProt P02769 25-607) (natural protein)", "values": [{"measurement": "amount bound per ml of matrix at saturation (μg per ml of matrix)", "value": 730}]}]}
